16 sequences from the supplement of paper PMC9170038 can be followed below.

This data set has as its system MS2 coat protein. Put plainly: apparent KD of MS2 coat protein; higher = weaker reporter binding. As to conditions: Eterna round: R107. The gist of the method:
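Titrations with SNAP-549-labelled MS2 coat protein ran in twofold steps from 0.7 or 1.5 nM to 3 µM, each step taking 0.8–1.5 h at the start and 10–20 min toward the end. The targets were designed RNA switches transcribed on-chip from Illumina sequencing clusters, held in 100 mM Tris-HCl pH 7.5, 80 mM KCl, 4 mM MgCl2, without or with constant ligand. Apparent KD was taken per design as the median of normalised cluster binding-curve fits.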

The mark [1] stands for this setting: input ligand: theophylline 20 uM.
[2] abbreviates: input ligand: theophylline 2 mM.
The mark [3] stands for this setting: input ligand: tryptophan 2.4 mM.

Take “CUGACGGACUCGGCCGCCACUGAUAGUAGGACAUGAGGAUCACCCAUGUAAACGAACCUCAUAGCCAGGACCGGGAGUCACGAAG [Same State Tryptophan B GF 22]”: the “apparent KD of MS2 coat protein” value is, setting by setting: (input ligand: arginine 13.2 mM) 56.4 nM; (input ligand: none) 204 nM; under setting [1], 189 nM; under setting [2], 410 nM; under setting [3], 49.5 nM.

As for “CUGCCAUGCAGGGAUACCAGUGCGUUCAGAACAUGAGGAUCACCCAUGUCGUCUGCCGAUCACCCUUGGCAGCUCUGCAUGGCAG [#05 Same State - Theophylline B]”, the “apparent KD of MS2 coat protein” value was found to be 9.22 nM (input ligand: arginine 13.2 mM); 9.69 nM (input ligand: none); 9.45 nM under setting [1]; 9.73 nM under setting [2]; 9.91 nM under setting [3].

On to “CUGGCAGGAUGAUCCGCUGUCAGGGCUGAUACCAGCCACGAAAGUGGCCCUUGGCAGCAGCAAACAUGAGGAUCACCCAUGUAAA [(T)''-(M)'-(T)'-(Theo)-(Ms2)_Design2]”, for which the “apparent KD of MS2 coat protein” value was 54.7 nM (input ligand: arginine 13.2 mM), 230 nM under setting [1] and 108 nM under setting [3].

Turning to “CUGUACAUCUCGGCCGCCACUGACAUGAGGAUCACCCAUGUAGUGCCGAUGAGAGACUUAUCGGCCAGGACCGGGAGGUGUGCAG [SSTryp B #32]”, the “apparent KD of MS2 coat protein” value by setting is: (input ligand: arginine 13.2 mM) 7.57 nM; (input ligand: none) 9.94 nM; under setting [1], 10.1 nM; under setting [2], 7.83 nM; under setting [3], 11.9 nM.

For “CUUGAUAACUGAAGGAGCGAGAAACCCUACAUGAGGAUCACCCAUGUAUACACGGGAACUUCUCAGGUAGGUCGCAGUAUGUCAA [Teveor]”, the “apparent KD of MS2 coat protein” value (input ligand: arginine 13.2 mM) stood at 90.6 nM; the “apparent KD of MS2 coat protein” value (input ligand: none) came to 54.4 nM; the “apparent KD of MS2 coat protein” value under setting [1] is 89.3 nM; the “apparent KD of MS2 coat protein” value under setting [2] stood at 165 nM; the “apparent KD of MS2 coat protein” value under setting [3] was determined as 71.5 nM.

As to “GAAAAUCCCGUACAUGAGGAUCACCCAUGUCGAGGACCGGUACGGCCGCCACUCGCACGCAUUGCAUUGGAGGGUCAGGUACGAG [Erenerrati]”, the “apparent KD of MS2 coat protein” value amounted to 26.9 nM (input ligand: arginine 13.2 mM); 28.5 nM (input ligand: none); 34.7 nM under setting [1]; 29.2 nM under setting [2]; 75.5 nM under setting [3].

With “GAAGACAUGAGGAUCACCCAUGUUACACACCGAGGACCGGUACGGCCGCCACUCGUAGGCCCUCGGCUCACCUGAGAUCCGCAUC [theeternabot_sameState_MS2_Trp_A_11]”, the “apparent KD of MS2 coat protein” value (input ligand: arginine 13.2 mM) came out at 17.5 nM, the “apparent KD of MS2 coat protein” value under setting [1] worked out at 31.8 nM and the “apparent KD of MS2 coat protein” value under setting [2] came to 31.9 nM.

With “GACAUAUGCUAUGCGCAGGCUACCCUCAGCCGAGGACCGGUACGGCCGCCACUCGUACUACCACAUGAGGAUCACCCAUGUUAUC [theeternabot_exclusion_MS2_Trp_A_29]”, the “apparent KD of MS2 coat protein” value (input ligand: arginine 13.2 mM) was found to be 20.1 nM, the “apparent KD of MS2 coat protein” value under setting [1] worked out at 28.4 nM and the “apparent KD of MS2 coat protein” value under setting [2] is 23.9 nM.

For the sequence “GACCUUAUCUGAAGGAGCGAGGUAAAUAGGGAUAGGAACAUGAGGAUCACCCAUGUGCGGCCUCAGGUAGGUCGCAGAUGAGAUU [Exclusion Arginine B GF28]”, the “apparent KD of MS2 coat protein” value (input ligand: arginine 13.2 mM) worked out at 42 nM; the “apparent KD of MS2 coat protein” value (input ligand: none) is 93.7 nM; the “apparent KD of MS2 coat protein” value under setting [1] is 103 nM; the “apparent KD of MS2 coat protein” value under setting [2] is 179 nM; the “apparent KD of MS2 coat protein” value under setting [3] was found to be 113 nM.

Take “GACUAUAUGAUAUGUCAGAAAUCCUCGAAACGAGGACCGGUACGGCCGCCACUCGAGUGAUCAACAUGAGGAUCACCCAUGUAAA [Tryp A Ex t1]”: the “apparent KD of MS2 coat protein” value by setting is: (input ligand: arginine 13.2 mM) 36.1 nM; (input ligand: none) 36.2 nM; under setting [1], 47.5 nM; under setting [2], 28.4 nM; under setting [3], 55.3 nM.

As to “GAGACGUCGGGAAGGAGCGCAUCCAAACCACACAUGAGGAUCACCCAUGUAUAAAUAUGCAUGCAGGUAGGUCGCCCGGUGUCCC [Diaxeon]”, the “apparent KD of MS2 coat protein” value came to 59.7 nM (input ligand: arginine 13.2 mM); 87.2 nM (input ligand: none); 125 nM under setting [1]; 97.8 nM under setting [2]; 75.1 nM under setting [3].

Turning to “GAGCUGAUGUAGGCCGGAUAUCCGGGAGAUACCAGUACAGAAAUGUACCCUUGGCAGCUCUUUCCUACAUGAGGAUCACCCAUGU [Ex Theophylline A 28]”, the “apparent KD of MS2 coat protein” value was 17 nM (input ligand: arginine 13.2 mM), 21.7 nM under setting [1] and 17.8 nM under setting [3].

For “GAUAUGUAUCGAAGGAGCGGCCCUUGAUCCUCAUGAGACAUGAGGAUCACCCAUGUCUCGGGCCAGGUAGGUCGCGAUAUAUAUC [Astros-omei-mod3]”, the “apparent KD of MS2 coat protein” value runs as follows: (input ligand: arginine 13.2 mM) 24.9 nM; (input ligand: none) 18.4 nM; under setting [1], 24.3 nM; under setting [2], 24.7 nM; under setting [3], 21.8 nM.

In the case of “GAUCGAUCAUAGUACGAUCGUUUUGUGGAAGGAGCGCAGAGGACUGCAGGUAGGUCGCCACAUGAGGAUCACCCAUGUCAGGAUU [XARG-A 24]”, the “apparent KD of MS2 coat protein” value reads like this: (input ligand: arginine 13.2 mM) 99.9 nM; (input ligand: none) 61.5 nM; under setting [1], 62.5 nM; under setting [2], 122 nM; under setting [3], 32.8 nM.

“GAUGAACUAUUUGAUACCAGACUACAUGAGGAUCACCCAUGUGAGUUUCCUCCUCUGCCAGUCCCUUGGCAGCAAAUAGUUUAUC [XTheo B #7]”: the “apparent KD of MS2 coat protein” value (input ligand: arginine 13.2 mM) turned out to be 57.6 nM, the “apparent KD of MS2 coat protein” value under setting [1] turned out to be 96.9 nM and the “apparent KD of MS2 coat protein” value under setting [3] was 42.3 nM.

For “GAUGAACUAUUUGAUACCAGACUACAUGAGGAUCACCCAUGUGAGUUUCGUCCUCUGCCAGUCCCUUGGCAGCAAAUAGUUUAUC [XTheo B #8]”, the “apparent KD of MS2 coat protein” value is, setting by setting: (input ligand: arginine 13.2 mM) 15.8 nM; under setting [1], 36.7 nM; under setting [3], 14.3 nM.
